In IntAct's records for PubMed 22990235:

B1: Mitochondrial intermembrane space import and assembly protein 40 (Saccharomyces cerevisiae), P36046 (parent)
chain: MLRNLVVRNACRNRPSIQVARGLCRHQTRRLMASSPQFGRNSNQEKTAGFIMGILSMAGALYFIAPNRKPLFASRKVESDKTAEEELSSGGEQSPENEDDNNSKSDENGDDNDSKNDETEAGPQLGGDKIGASKVAEDGELVVLAEEDNKSSEDKDTDESKVSTKDDEQSNEDNATANNQKDENISSENSEENTSDKTLDNNAGSSEKKDPEHSDDEKSQQGQSDDKTTTEDNNGEEESSKKTVSDSENSAKQSESSDEEKEELRKQEEKQMGPTEEEVQHEGAYNPDTGEINWDCPCLGGMAHGPCGEEFKSAFSCFVYSEAEPKGIDCVEKFQHMQDCFRKYPEHYAEQLKETSDDEEPQDKVKVNTIESAPNVSSAKENAAKKAEQSDVKKEPLNEESKP
partner: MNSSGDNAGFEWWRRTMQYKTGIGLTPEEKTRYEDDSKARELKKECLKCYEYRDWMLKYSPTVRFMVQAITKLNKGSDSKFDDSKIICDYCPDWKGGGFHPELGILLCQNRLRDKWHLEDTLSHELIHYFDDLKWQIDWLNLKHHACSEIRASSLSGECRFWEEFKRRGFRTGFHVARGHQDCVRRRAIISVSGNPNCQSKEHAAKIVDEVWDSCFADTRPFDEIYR

Variants of: B1
Details: with atp23_yeast ATP23, P53722

effect of a mutation on the interaction	Variant
decreasing interaction	F318E
decreasing interaction	F315E
